The Km is the concentration of substrate that gives half-maximal velocity.

Substrate in this data set: O=C(O)c1cccnc1
Description: purified protein, by the assay type. Particulars: other: kinetics in the absence of the inhibitor; 0.4 mM PRPP; pH 7.5; 37.0 °C.

B1: human recombinant NAPRT (Homo sapiens) (protein)
chain: MAAEQDPEARAAARPLLTDLYQATMALGYWRAGRARDAAEFELFFRRCPFGGAFALAAGLRDCVRFLRAFRLRDADVQFLASVLPPDTDPAFFEHLRALDCSEVTVRALPEGSLAFPGVPLLQVSGPLLVVQLLETPLLCLVSYASLVATNAARLRLIAGPEKRLLEMGLRRAQGPDGGLTASTYSYLGGFDSSSNVLAGQLRGVPVAGTLAHSFVTSFSGSEVPPDPMLAPAAGEGPGVDLAAKAQVWLEQVCAHLGLGVQEPHPGERAAFVAYALAFPRAFQGLLDTYSVWRSGLPNFLAVALALGELGYRAVGVRLDSGDLLQQAQEIRKVFRAAAAQFQVPWLESVLIVVSNNIDEEALARLAQEGSEVNVIGIGTSVVTCPQQPSLGGVYKLVAVGGQPRMKLTEDPEKQTLPGSKAAFRLLGSDGSPLMDMLQLAEEPVPQAGQELRVWPPGAQEPCTVRPAQVEPLLRLCLQQGQLCEPLPSLAESRALAQLSLSRLSPEHRRLRSPAQYQVVLSERLQALVNSLCAGQSP
Turning to B1, the Km was found to be 15 ± 6 µM.
